From US20240301064A1 (published 2024)
Residue numbers refer to the chain shown, from its start.

B1: PMAB142 (bispecific antibody, human IgG1, kappa)
heavy: EVQLLESGGGLVQPGGSLRLSCAASGFTFSNSDMSWVRQAPGKGLEWVSGITISGGSTYYADSVKGRFTISRDNSKNTLYLQMNSLRAEDTAVYYCARGRGGSGWLDYWGQGTLVTVSSASTKGPSVFPLAPSSKSTSGGTAALGCLVKDYFPEPVTVSWNSGALTSGVHTFPAVLQSSGLYSLSSVVTVPSSSLGTQTYICNVNHKPSNTKVDKKVEPKSCDKTHTCPPCPAPEAAGAPSVFLFPPKPKDTLMISRTPEVTCVVVDVSHEDPEVKFNWYVDGVEVHNAKTKPREEQYNSTYRVVSVLTVLHQDWLNGKEYKCKVSNKALPAPIEKTISKAKGQPREPQVYTLPPSREEMTKNQVSLTCLVKGFYPSDIAVEWESNGQPENNYKTTPPVLDSDGSFFLYSKLTVDKSRWQQGNVFSCSVMHEALHNHYTQKSLSLSPGGGGGSGGGGSGGGGSEVQLLESGGGLVQPGGSLRLSCAASGFTFSDFWMHWVRQAPGKGLEWISYISGDSGYTNYADSVKGRFTISRDNSKNTLYLQMNSLRAEDTAVYYCARDRPYYYYMDVWGKGTTVTVSSGGGGSGGGGSGGGGSGGGGSDIQMTQSPSSLSASVGDRVTITCRASQSVSRSLAWYQQKPGKAPKLLIYAASSLQSGVPSRFSGSGSGTDFTLTISSLQPEDFATYYCQQYKSYPVTFGQGTKVEIK
light: not shown
B2: PMAB143 (bispecific antibody, human IgG1, kappa)
heavy: B1 heavy
light: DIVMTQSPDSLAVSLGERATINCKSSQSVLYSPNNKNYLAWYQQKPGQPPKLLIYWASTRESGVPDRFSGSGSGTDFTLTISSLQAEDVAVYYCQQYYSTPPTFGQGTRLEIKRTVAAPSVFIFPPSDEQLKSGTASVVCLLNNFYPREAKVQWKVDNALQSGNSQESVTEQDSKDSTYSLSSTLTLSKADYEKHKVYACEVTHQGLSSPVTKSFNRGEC
B3: PMAB175 (bispecific antibody, human IgG1, kappa)
heavy: B1 heavy with N31S, S32Y
light: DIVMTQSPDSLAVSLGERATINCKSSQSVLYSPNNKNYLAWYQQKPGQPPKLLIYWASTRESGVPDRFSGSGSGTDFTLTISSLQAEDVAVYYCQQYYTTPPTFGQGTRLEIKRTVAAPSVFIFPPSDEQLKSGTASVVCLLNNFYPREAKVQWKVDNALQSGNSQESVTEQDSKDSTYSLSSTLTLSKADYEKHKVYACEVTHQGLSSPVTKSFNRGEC
B4: PMAB176 (bispecific antibody, human IgG1, kappa)
heavy: B1 heavy with N31S, S32Y, G50A
light: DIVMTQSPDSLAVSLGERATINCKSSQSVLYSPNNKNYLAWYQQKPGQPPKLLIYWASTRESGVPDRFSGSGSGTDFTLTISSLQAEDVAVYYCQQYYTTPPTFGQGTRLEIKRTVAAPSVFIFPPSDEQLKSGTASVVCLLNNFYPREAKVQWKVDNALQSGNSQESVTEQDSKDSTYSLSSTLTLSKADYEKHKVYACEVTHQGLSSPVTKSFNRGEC
B5: PMAB177 (bispecific antibody, human IgG1, kappa)
heavy: B1 heavy with N31S, S32Y, T52S
light: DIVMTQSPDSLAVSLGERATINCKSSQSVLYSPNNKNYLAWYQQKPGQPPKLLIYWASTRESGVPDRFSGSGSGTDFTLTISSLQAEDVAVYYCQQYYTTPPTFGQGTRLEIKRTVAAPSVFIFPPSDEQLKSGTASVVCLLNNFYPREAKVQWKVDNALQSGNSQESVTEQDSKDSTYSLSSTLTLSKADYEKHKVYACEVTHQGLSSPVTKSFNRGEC
B6: PMAB178 (bispecific antibody, human IgG1, kappa)
heavy: B1 heavy with N31S, S32Y, I53G
light: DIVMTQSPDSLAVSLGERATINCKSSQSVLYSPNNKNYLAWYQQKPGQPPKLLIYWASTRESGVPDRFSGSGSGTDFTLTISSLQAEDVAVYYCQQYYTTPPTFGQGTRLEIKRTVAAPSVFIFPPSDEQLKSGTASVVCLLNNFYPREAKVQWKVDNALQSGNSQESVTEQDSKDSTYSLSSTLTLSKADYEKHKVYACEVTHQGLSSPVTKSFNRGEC
B7: PMAB183 (bispecific antibody, human IgG1, kappa)
heavy: B1 heavy with G50A, T52S, I53G
light: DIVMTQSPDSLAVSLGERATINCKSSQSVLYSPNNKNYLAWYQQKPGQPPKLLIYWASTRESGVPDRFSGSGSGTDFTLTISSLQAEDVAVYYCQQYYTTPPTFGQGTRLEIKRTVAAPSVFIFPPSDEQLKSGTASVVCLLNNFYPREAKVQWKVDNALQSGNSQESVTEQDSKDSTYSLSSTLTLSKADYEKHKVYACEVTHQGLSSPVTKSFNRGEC
B8: PMAB194 (bispecific antibody, human IgG1, kappa)
heavy: B1 heavy with N31S, S32Y, D494S, F495Y, I511V, D517S, S518G, Y566G, V631I, R633S
light: not shown
B9: PMAB195 (bispecific antibody, human IgG1, kappa)
heavy: B1 heavy with N31S, S32Y, D494S, F495Y, I511V, D517S, S518G, Y566G, V631I, R633S
light: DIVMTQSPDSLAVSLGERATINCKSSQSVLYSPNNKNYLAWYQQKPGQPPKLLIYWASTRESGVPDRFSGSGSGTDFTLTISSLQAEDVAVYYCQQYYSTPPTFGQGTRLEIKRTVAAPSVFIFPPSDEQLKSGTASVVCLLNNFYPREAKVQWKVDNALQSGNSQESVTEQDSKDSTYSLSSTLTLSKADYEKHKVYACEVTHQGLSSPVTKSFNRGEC
B10: PMAB198 (bispecific antibody, human IgG1, kappa)
heavy: EVQLLESGGGLVQPGGSLRLSCAASGFTFSSYDMSWVRQAPGKGLEWVSGITISGGSTYYADSVKGRFTISRDNSKNTLYLQMNSLRAEDTAVYYCARGRGGSGWLDYWGQGTDVTVSSASTKGPSVFPLAPSSKSTSGGTAALGCLVKDYFPEPVTVSWNSGALTSGVHTFPAVLQSSGLYSLSSVVTVPSSSLGTQTYICNVNHKPSNTKVDKKVEPKSCDKTHTCPPCPAPEAAGAPSVFLFPPKPKDTLMISRTPEVTCVVVDVSHEDPEVKFNWYVDGVEVHNAKTKPREEQYNSTYRVVSVLTVLHQDWLNGKEYKCKVSNKALPAPIEKTISKAKGQPREPQVYTLPPSREEMTKNQVSLTCLVKGFYPSDIAVEWESNGQPENNYKTTPPVLDSDGSFFLYSKLTVDKSRWQQGNVFSCSVMHEALHNHYTQKSLSLSPGGGGGSGGGGSGGGGSEVQLLESGGGLVQPGGSLRLSCAASGFTFSSYWMHWVRQAPGKGLEWVSYISGSGGYTNYADSVKGRFTISRDNSKNTLYLQMNSLRAEDTAVYYCARDRPYGYYMDVWGKGTTVTVSSGGGGSGGGGSGGGGSGGGGSDIQMTQSPSSLSASVGDRVTITCRASQSISSSLAWYQQKPGKAPKLLIYAASSLQSGVPSRFSGSGSGTDFTLTISSLQPEDFATYYCQQYKSYPVTFGQGTKVEIK
light: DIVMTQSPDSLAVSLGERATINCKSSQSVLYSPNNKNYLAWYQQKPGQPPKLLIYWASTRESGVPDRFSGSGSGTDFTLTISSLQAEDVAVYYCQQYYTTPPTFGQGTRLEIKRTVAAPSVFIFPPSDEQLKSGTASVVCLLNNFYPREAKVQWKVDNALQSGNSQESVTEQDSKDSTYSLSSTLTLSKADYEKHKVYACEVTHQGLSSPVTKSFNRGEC
B11: PMAB199 (bispecific antibody, human IgG1, kappa)
heavy: B10 heavy with D114T
light: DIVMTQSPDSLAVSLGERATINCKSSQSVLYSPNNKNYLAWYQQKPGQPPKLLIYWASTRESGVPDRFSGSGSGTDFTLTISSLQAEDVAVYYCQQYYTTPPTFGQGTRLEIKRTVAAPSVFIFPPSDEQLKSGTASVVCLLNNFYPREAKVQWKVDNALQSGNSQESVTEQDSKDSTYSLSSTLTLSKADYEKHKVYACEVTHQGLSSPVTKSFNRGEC
B12: PMAB119 (bispecific antibody, human IgG1, kappa)
heavy: QVQLVQSGAEVKKPGASVKVSCKASGYSFTTYYMHWVRQAPGQGLEWMGIIAPSGGSTSYAQKFQGRVTMTRDTSTSTVYMELSSLRSEDTAVYYCASGWVYWGQGTLVTVSSASTKGPSVFPLAPSSKSTSGGTAALGCLVKDYFPEPVTVSWNSGALTSGVHTFPAVLQSSGLYSLSSVVTVPSSSLGTQTYICNVNHKPSNTKVDKKVEPKSCDKTHTCPPCPAPEAAGAPSVFLFPPKPKDTLMISRTPEVTCVVVDVSHEDPEVKFNWYVDGVEVHNAKTKPREEQYNSTYRVVSVLTVLHQDWLNGKEYKCKVSNKALPAPIEKTISKAKGQPREPQVYTLPPSREEMTKNQVSLTCLVKGFYPSDIAVEWESNGQPENNYKTTPPVLDSDGSFFLYSKLTVDKSRWQQGNVFSCSVMHEALHNHYTQKSLSLSPGGGGGSGGGGSGGGGSEVQLLESGGGLVQPGGSLRLSCAASGFTFSDFWMHWVRQAPGKGLEWISYISGDSGYTNYADSVKGRFTISRDNSKNTLYLQMNSLRAEDTAVYYCARDRPYYYYMDVWGKGTTVTVSSGGGGSGGGGSGGGGSGGGGSDIQMTQSPSSLSASVGDRVTITCRASQSVSRSLAWYQQKPGKAPKLLIYAASSLQSGVPSRFSGSGSGTDFTLTISSLQPEDFATYYCQQYKSYPVTFGQGTKVEIK
light: not shown
B13: PMAB108 (bispecific antibody, human IgG1, kappa)
heavy: B12 heavy with S28T
light: not shown
B14: PMAB109 (bispecific antibody, human IgG1, kappa)
heavy: B12 heavy with T31S
light: not shown
B15: PMAB111 (bispecific antibody, human IgG1, kappa)
heavy: B12 heavy
light: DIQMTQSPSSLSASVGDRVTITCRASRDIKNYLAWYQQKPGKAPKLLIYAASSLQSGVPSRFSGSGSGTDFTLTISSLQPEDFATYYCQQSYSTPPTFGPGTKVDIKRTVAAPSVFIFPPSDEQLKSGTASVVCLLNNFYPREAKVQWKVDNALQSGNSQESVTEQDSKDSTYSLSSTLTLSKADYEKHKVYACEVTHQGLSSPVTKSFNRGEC
B16: PMAB112 (bispecific antibody, human IgG1, kappa)
heavy: B12 heavy
light: not shown
B17: PMAB113 (bispecific antibody, human IgG1, kappa)
heavy: B12 heavy
light: not shown
B18: PMAB114 (bispecific antibody, human IgG1, kappa)
heavy: B12 heavy
light: not shown
B19: PMAB115 (bispecific antibody, human IgG1, kappa)
heavy: B12 heavy
light: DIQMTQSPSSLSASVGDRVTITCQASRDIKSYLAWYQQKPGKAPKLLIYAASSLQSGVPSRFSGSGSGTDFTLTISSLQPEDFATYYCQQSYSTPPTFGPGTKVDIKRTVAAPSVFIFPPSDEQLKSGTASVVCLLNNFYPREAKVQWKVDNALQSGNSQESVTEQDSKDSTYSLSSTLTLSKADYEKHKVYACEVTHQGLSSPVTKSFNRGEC
B20: PMAB274 (antibody, human IgG1, kappa, V domains shown)
VH: EVQLVQSGAEVKKPGASVKVSCKASGYTFTTYYMHWVRQAPGQGLEWMGIINPSGGSTSYAQKFQGRVTMTRDTSTSTVYMELSSLRSEDTAVYYCASGWVYWGQGTLVTVSS
VL: DIQMTQSPSSLSASVGDRVTITCQASRDIKNYLAWYQQKPGKAPKLLIYAASSLQSGVPSRFSGSGSGTDFTLTISSLQPEDFATYYCQQSYSTPPTFGPGTKVDIKR
B21: PMAB275 (antibody, human IgG1, kappa, V domains shown)
VH: B20 VH with T28S, T31S
VL: B20 VL
B22: PMAB276 (antibody, human IgG1, kappa, V domains shown)
VH: B20 VH with T28S
VL: B20 VL
B23: PMAB277 (antibody, human IgG1, kappa, V domains shown)
VH: B20 VH
VL: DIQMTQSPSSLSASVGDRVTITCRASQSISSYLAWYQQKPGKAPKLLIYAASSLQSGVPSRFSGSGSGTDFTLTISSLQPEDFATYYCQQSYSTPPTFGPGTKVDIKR
B24: PMAB278 (antibody, human IgG1, kappa, V domains shown)
VH: B20 VH with T28S, T31S
VL: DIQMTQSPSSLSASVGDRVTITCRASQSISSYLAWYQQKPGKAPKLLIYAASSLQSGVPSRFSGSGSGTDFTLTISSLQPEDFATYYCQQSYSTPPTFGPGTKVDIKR
B25: PMAB217 (bispecific antibody, human IgG1, kappa)
heavy: QVQLVQSGAEVKKPGASVKVSCKASGYTFSDHYMHWVRQAPGQGLEWMGTIAPSGGRTSYAQKFQGRVTMTRDTSTSTVYMELSSLRSEDTAVYYCAADNGHASGWLYYYGMDVWGQGTTVTVSSASTKGPSVFPLAPSSKSTSGGTAALGCLVKDYFPEPVTVSWNSGALTSGVHTFPAVLQSSGLYSLSSVVTVPSSSLGTQTYICNVNHKPSNTKVDKKVEPKSCDKTHTCPPCPAPEAAGAPSVFLFPPKPKDTLMISRTPEVTCVVVDVSHEDPEVKFNWYVDGVEVHNAKTKPREEQYNSTYRVVSVLTVLHQDWLNGKEYKCKVSNKALPAPIEKTISKAKGQPREPQVYTLPPSREEMTKNQVSLTCLVKGFYPSDIAVEWESNGQPENNYKTTPPVLDSDGSFFLYSKLTVDKSRWQQGNVFSCSVMHEALHNHYTQKSLSLSPGGGGGSGGGGSGGGGSEVQLLESGGGLVQPGGSLRLSCAASGFTFSDFWMHWVRQAPGKGLEWISYISGDSGYTNYADSVKGRFTISRDNSKNTLYLQMNSLRAEDTAVYYCARDRPYYYYMDVWGKGTTVTVSSGGGGSGGGGSGGGGSGGGGSDIQMTQSPSSLSASVGDRVTITCRASQSVSRSLAWYQQKPGKAPKLLIYAASSLQSGVPSRFSGSGSGTDFTLTISSLQPEDFATYYCQQYKSYPVTFGQGTKVEIK
light: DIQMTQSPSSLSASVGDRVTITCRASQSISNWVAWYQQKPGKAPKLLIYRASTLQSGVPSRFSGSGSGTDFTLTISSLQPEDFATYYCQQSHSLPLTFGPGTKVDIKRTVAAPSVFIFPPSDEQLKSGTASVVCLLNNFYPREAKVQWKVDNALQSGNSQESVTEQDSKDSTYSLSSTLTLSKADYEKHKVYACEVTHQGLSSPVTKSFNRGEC
B26: PMAB201 (bispecific antibody, human IgG1, kappa)
heavy: B25 heavy with S30T
light: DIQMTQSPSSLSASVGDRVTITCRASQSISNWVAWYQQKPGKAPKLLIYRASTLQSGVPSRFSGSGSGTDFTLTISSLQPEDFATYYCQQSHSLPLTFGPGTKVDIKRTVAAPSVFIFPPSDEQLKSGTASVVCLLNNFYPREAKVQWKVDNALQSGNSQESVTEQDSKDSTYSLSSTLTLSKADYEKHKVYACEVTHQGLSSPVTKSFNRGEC
B27: PMAB202 (bispecific antibody, human IgG1, kappa)
heavy: B25 heavy with D31S
light: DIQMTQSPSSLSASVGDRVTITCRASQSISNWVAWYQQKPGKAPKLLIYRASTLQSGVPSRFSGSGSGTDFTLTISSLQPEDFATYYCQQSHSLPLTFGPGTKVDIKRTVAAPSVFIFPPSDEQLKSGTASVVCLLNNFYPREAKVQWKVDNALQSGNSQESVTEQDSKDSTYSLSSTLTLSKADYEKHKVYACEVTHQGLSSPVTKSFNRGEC
B28: PMAB204 (bispecific antibody, human IgG1, kappa)
heavy: B25 heavy with T50I
light: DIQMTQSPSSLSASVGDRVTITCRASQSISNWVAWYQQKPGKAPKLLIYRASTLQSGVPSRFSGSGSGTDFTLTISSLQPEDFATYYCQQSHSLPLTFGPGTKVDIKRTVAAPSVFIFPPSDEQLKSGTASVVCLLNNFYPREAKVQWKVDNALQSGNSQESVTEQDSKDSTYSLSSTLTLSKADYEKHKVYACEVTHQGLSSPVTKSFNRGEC
B29: PMAB205 (bispecific antibody, human IgG1, kappa)
heavy: B25 heavy with R57S
light: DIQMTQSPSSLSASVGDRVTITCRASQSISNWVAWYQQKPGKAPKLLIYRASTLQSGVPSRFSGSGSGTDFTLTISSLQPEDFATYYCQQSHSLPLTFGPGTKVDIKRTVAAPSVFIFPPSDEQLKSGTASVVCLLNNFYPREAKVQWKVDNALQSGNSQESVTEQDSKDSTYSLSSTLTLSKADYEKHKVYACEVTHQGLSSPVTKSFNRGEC
B30: PMAB207 (bispecific antibody, human IgG1, kappa)
heavy: B25 heavy
light: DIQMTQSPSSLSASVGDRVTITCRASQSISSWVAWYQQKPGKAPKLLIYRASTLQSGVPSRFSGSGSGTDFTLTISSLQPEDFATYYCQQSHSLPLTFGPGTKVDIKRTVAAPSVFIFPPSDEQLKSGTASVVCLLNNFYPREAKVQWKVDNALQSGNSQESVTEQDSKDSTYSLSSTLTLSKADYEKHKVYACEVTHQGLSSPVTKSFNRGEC
B31: PMAB208 (bispecific antibody, human IgG1, kappa)
heavy: B25 heavy
light: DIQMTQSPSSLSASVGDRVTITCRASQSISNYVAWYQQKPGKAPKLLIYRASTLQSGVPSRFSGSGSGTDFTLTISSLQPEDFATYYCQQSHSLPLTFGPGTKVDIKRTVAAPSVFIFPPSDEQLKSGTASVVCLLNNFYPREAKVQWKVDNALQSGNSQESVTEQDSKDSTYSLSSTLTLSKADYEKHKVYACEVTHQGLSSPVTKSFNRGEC
B32: PMAB209 (bispecific antibody, human IgG1, kappa)
heavy: B25 heavy
light: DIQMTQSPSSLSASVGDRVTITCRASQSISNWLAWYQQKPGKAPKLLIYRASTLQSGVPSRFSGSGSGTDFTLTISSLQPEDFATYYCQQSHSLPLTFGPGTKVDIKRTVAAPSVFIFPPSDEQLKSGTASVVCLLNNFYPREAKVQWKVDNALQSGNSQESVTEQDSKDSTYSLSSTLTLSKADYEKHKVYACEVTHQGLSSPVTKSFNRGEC
B33: PMAB210 (bispecific antibody, human IgG1, kappa)
heavy: B25 heavy
light: not shown
B34: PMAB211 (bispecific antibody, human IgG1, kappa)
heavy: B25 heavy
light: not shown
B35: PMAB212 (bispecific antibody, human IgG1, kappa)
heavy: B25 heavy
light: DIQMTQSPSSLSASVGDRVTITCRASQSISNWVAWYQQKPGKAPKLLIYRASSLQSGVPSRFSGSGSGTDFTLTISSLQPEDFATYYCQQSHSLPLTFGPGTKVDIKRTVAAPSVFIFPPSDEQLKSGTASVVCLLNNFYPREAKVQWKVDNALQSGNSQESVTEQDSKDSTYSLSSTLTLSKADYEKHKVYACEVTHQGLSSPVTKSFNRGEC
B36: PMAB213 (bispecific antibody, human IgG1, kappa)
heavy: B25 heavy
light: not shown

Target: T1, human PD-1 (human, UniProt Q15116 25-167, limits assumed)
T1 construct: also called huPD-1
Assay: BLI, antibody on AHC tip, soluble PD-1

T1 sequence (Q15116 25-167 limits assumed): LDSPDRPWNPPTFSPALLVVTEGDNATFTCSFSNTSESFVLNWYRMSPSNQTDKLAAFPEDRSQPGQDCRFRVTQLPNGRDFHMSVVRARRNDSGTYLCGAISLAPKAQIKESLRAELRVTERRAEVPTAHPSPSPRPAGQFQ

Binder	Kd
B1	33 nM
B2	17 nM
B3	77.1 nM
B4	894 nM
B5	809 nM
B6	1300 nM
B7	11300 nM
B8	577 nM
B9	651 nM
B10	104 nM
B11	98.6 nM
B12	96.9 nM
B13	55.3 nM
B14	85.9 nM
B15	67.6 nM
B16	76.2 nM
B17	91.7 nM
B18	113 nM

Binder	Kd
B19	229 nM
B20	1790 nM
B21	849 nM
B22	985 nM
B23	896 nM
B24	892 nM
B25	424 nM
B26	341 nM
B27	755 nM
B28	1710 nM
B29	795 nM
B30	445 nM
B31	553 nM
B32	687 nM
B33	3130 nM
B34	1300 nM
B35	1090 nM
B36	1430 nM
